Experimental data reported in paper PMC8329185 (2021).

Molecular target: His6-DNAJB1 (human, UniProt P25685 1-340)
Assay: SPR

His6-DNAJB1, sequence (P25685 whole entry): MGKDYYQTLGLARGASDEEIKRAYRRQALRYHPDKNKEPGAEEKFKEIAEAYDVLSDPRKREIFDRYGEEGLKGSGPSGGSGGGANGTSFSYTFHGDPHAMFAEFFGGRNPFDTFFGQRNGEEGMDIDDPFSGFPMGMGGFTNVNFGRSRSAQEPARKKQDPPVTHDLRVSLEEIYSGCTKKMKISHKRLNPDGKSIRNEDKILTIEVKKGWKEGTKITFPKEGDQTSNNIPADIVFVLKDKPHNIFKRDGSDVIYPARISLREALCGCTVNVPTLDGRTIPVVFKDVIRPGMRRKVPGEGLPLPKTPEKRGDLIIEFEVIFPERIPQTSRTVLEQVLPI

koff: 0.00014 s⁻¹
B1: GST-TrnSR (WT, without mCherry) (natural protein)
chain: MEGAKPTLQLVYQAVQALYHDPDPSGKERASFWLGELQRSVHAWEISDQLLQIRQDVESCYFAAQTMKMKIQTSFYELPTDSHASLRDSLLTHIQNLKDLSPVIVTQLALAIADLALQMPSWKGCVQTLVEKYSNDVTSLPFLLEILTVLPEEVHSRSLRIGANRRTEIIEDLAFYSSTVVSLLMTCVEKAGTDEKMLMKVFRCLGSWFNLGVLDSNFMANNKLLALLFEVLQQDKTSSNLHEAASDCVCSALYAIENVETNLPLAMQLFQGVLTLETAYHMAVAREDLDKVLNYCRIFTELCETFLEKIVCTPGQGLGDLRTLELLLICAGHPQYEVVEISFNFWYRLGEHLYKTNDEVIHGIFKAYIQRLLHALARHCQLEPDHEGVPEETDDFGEFRMRVSDLVKDLIFLIGSMECFAQLYSTLKEGNPPWEVTEAVLFIMAAIAKSVDPENNPTLVEVLEGVVRLPETVHTAVRYTSIELVGEMSEVVDRNPQFLDPVLGYLMKGLCEKPLASAAAKAIHNICSVCRDHMAQHFNGLLEIARSLDSFLLSPEAAVGLLKGTALVLARLPLDKITECLSELCSVQVMALKKLLSQEPSNGISSDPTVFLDRLAVIFRHTNPIVENGQTHPCQKVIQEIWPVLSETLNKHRADNRIVERCCRCLRFAVRCVGKGSAALLQPLVTQMVNVYHVHQHSCFLYLGSILVDEYGMEEGCRQGLLDMLQALCIPTFQLLEQQNGLQNHPDTVDDLFRLATRFIQRSPVTLLRSQVVIPILQWAIASTTLDHRDANCSVMRFLRDLIHTGVANDHEEDFELRKELIGQVMNQLGQQLVSQLLHTCCFCLPPYTLPDVAEVLWEIMQVDRPTFCRWLENSLKGLPKETTVGAVTVTHKQLTDFHKQVTSAEECKQVCWALRDFTRLFR
